{"source": "patent US7670806B2", "about": "“ADP-ribosyl acceptor hydrolase 3 (ARH3) polypeptides and methods of use” (The United States of America as represented by the …, priority 2005, dated 2010)", "assay": "Hydrolysis of O-acetyl-[14C]ADP-ribose by ARH proteins / PARG (RP-HPLC)", "assay_type": "biochemical", "conditions": "1.5 pmol wild type or mutant human ARH3 or 20 mU PARG, 2 h at 30° C.; mouse ARH1, 2, 3", "method": "FIG. 13A is a graph illustrating the results from incubation of 1.5 pmol of mouse ARH3 with or without 5 mM DTT and/or 10 mM MgCl2 as described in FIG. 11B with incubation for 1 h at 30° C. FIG. 13B is a graph illustrating the results from incubation of 1.5 pmol of wild type or mutant human (D77-78) ARH3 or 20 mU of PARG for 2 h at 30° C. *D77,78, assays incubated with 15 pmol of mutant human ARH3 (D77, D78).\nFIG. 14A is a graph of the results from incubation with the indicated amount of mouse ARH1, 2, or 3 for 2 h at 30° C. FIG. 14B is a graph of the results from incubation with 230 pmol of mouse ARH1 at 30° C. for the indicated time.\nMouse ARH3 (2 pmol) and 2.5 μM O-acetyl-[^14C]ADP-ribose (5,000 cpm) in 200 μl of buffer containing 50 mM potassium phosphate (pH 7.0), 10 mM MgCl2 and 5 mM DTT were incubated for 2 h at 30° C., before separation of substrate and products using RP-HPLC as described below.\nHydrolysis of O-acetyl-[^14C]ADP-ribose catalyzed by ARH3. Assays containing the indicated concentration of O-acetyl-[^14C]-ADP-ribose (0.1 to 2 nmol, 1,000 to 20,000 cpm) and 1.5 pmol of ARH3 in 200 μl of buffer (50 mM KPO4 (pH 7.0), 10 mM MgCl2, 5 mM DTT) were incubated at 30° C. for 20 min. Substrate and products were separated using RP-HPLC. Amounts of product were corrected for ADP-ribose produced in the absence of ARH3 before calculation of hydrolysis rates.\nBecause O-acetyl-ADP-ribose was known to be hydrolyzed at alkaline pH Tanny and Moazed (2001), Proc Natl Acad Sci USA. 98(2):415-20, Epub Dec. 26, 2000), it was generated at pH 7.0 in the presence of [^14C-adenine] β-NAD, Sir2, and acetylated histone H3 peptide (FIG. 11A), and the products of Sir2 and ARH3 were analyzed using reverse-phase HPLC at the same pH (FIGS. 11A,B). The products of the ARH3-catalyzed reaction were also analyzed by high resolution-polyacrylamide gel electrophoresis (FIG. 11C). O-acetyl-[^14C]ADP-ribose hydrolase activity was time and ARH3 dependent (FIG. 12) and essentially completely dependent on Mg^2+ (FIG. 13A).\nO-acetyl-ADP-ribose hydrolysis by ARH1 was time and ARH1 dependent (FIG. 14b).", "data": [{"molecule": "ARH3 (D77N/D78N): human ARH3 mutant with dual amino acid replacement D77N/D78N (protein) MAAAAMAAAAGGGAGAARSLSRFRGCLAGALLGDCVGSFYEAHDTVDLTSVLRHVQSLEPDPGTPGSERTEALYYTNNTAMARALVQSLLAKEAFDEVDMAHRFAQEYKKDPDRGYGAGVVTVFKKLLNPKCRDVFEPARAQFNGKGSYGNGGAMRVAGISLAYSSVQDVQKFARLSAQLTHASSLGYNGAILQALAVHLALQGESSSEHFLKQLLGHMEDLEGDAQSVLDARELGMEERPYSSRLKKIGELLDQASVTREEVVSELGNGIAAFESVPTAIYCFLRCMEPDPEIPSAFNSLQRTLIYSISLGGDTDTIATMAGAIAGAYYGMDQVPESWQQSCEGYEETDILAQSLHRVFQKS", "values": [{"measurement": "O-acetyl-ADP-ribose hydrolysis (in words)", "result": "apparently inactive"}]}]}
